This note sets out measurements from paper PMC7699580, “Transmembrane Polar Relay Drives the Allosteric Regulation for ABCG5/G8 Sterol Transporter” (International Journal of Molecular Sciences, 2020).

To fix the notation:
B1: ABCG5/G8 (Homo sapiens) (protein)
chain 1: MGDLSSLTPGGSMGLQVNRGSQSSLEGAPATAPEPHSLGILHASYSVSHRVRPWWDITSCRQQWTRQILKDVSLYVESGQIMCILGSSGSGKTTLLDAMSGRLGRAGTFLGEVYVNGRALRREQFQDCFSYVLQSDTLLSSLTVRETLHYTALLAIRRGNPGSFQKKVEAVMAELSLSHVADRLIGNYSLGGISTGERRRVSIAAQLLQDPKVMLFDEPTTGLDCMTANQIVVLLVELARRNRIVVLTIHQPRSELFQLFDKIAILSFGELIFCGTPAEMLDFFNDCGYPCPEHSNPFDFYMDLTSVDTQSKEREIETSKRVQMIESAYKKSAICHKTLKNIERMKHLKTLPMVPFKTKDSPGVFSKLGVLLRRVTRNLVRNKLAVITRLLQNLIMGLFLLFFVLRVRSNVLKGAIQDRVGLLYQFVGATPYTGMLNAVNLFPVLRAVSDQESQDGLYQKWQMMLAYALHVLPFSVVATMIFSSVCYWTLGLHPEVARFGYFSAALLAPHLIGEFLTLVLLGIVQNPNIVNSVVALLSIAGVLVGSGFLRNIQEMPIPFKIISYFTFQKYCSEILVVNEFYGLNFTCGSSNVSVTTNPMCAFTQGIQFIEKTCPGATSRFTMNFLILYSFIPALVILGIVVFKIRDHLISR
chain 2: MAGKAAEERGLPKGATPQDTSGLQDRLFSSESDNSLYFTYSGQPNTLEVRDLNYQVDLASQVPWFEQLAQFKMPWTSPSCQNSCELGIQNLSFKVRSGQMLAIIGSSGCGRASLLDVITGRGHGGKIKSGQIWINGQPSSPQLVRKCVAHVRQHNQLLPNLTVRETLAFIAQMRLPRTFSQAQRDKRVEDVIAELRLRQCADTRVGNMYVRGLSGGERRRVSIGVQLLWNPGILILDEPTSGLDSFTAHNLVKTLSRLAKGNRLVLISLHQPRSDIFRLFDLVLLMTSGTPIYLGAAQHMVQYFTAIGYPCPRYSNPADFYVDLTSIDRRSREQELATREKAQSLAALFLEKVRDLDDFLWKAETKDLDEDTCVESSVTPLDTNCLPSPTKMPGAVQQFTTLIRRQISNDFRDLPTLLIHGAEACLMSMTIGFLYFGHGSIQLSFMDTAALLFMIGALIPFNVILDVISKCYSERAMLYYELEDGLYTTGPYFFAKILGELPEHCAYIIIYGMPTYWLANLRPGLQPFLLHFLLVWLVVFCCRIMALAAAALLPTFHMASFFSNALYNSFYLAGGFMINLSSLWTVPAWISKVSFLRWCFEGLMKIQFSRRTYKMPLGNLTIAVSGDKILSVMELDSYPLYAIYLIVIGLSGGFMVLYYVSLRFIKQKPSQDW
notes: full-length heterodimer; ABCG5 C-terminal His6GlyHis6, ABCG8 C-terminal 3C site and CBP (CBP tag and N-glycans kept); Pichia pastoris KM71H; DDM-purified
B2: ABCG5/G8 (Homo sapiens; Q9H222:A540F) (protein)
chain 1: MGDLSSLTPGGSMGLQVNRGSQSSLEGAPATAPEPHSLGILHASYSVSHRVRPWWDITSCRQQWTRQILKDVSLYVESGQIMCILGSSGSGKTTLLDAMSGRLGRAGTFLGEVYVNGRALRREQFQDCFSYVLQSDTLLSSLTVRETLHYTALLAIRRGNPGSFQKKVEAVMAELSLSHVADRLIGNYSLGGISTGERRRVSIAAQLLQDPKVMLFDEPTTGLDCMTANQIVVLLVELARRNRIVVLTIHQPRSELFQLFDKIAILSFGELIFCGTPAEMLDFFNDCGYPCPEHSNPFDFYMDLTSVDTQSKEREIETSKRVQMIESAYKKSAICHKTLKNIERMKHLKTLPMVPFKTKDSPGVFSKLGVLLRRVTRNLVRNKLAVITRLLQNLIMGLFLLFFVLRVRSNVLKGAIQDRVGLLYQFVGATPYTGMLNAVNLFPVLRAVSDQESQDGLYQKWQMMLAYALHVLPFSVVATMIFSSVCYWTLGLHPEVARFGYFSAALLAPHLIGEFLTLVLLGIVQNPNIVNSVVALLSIFGVLVGSGFLRNIQEMPIPFKIISYFTFQKYCSEILVVNEFYGLNFTCGSSNVSVTTNPMCAFTQGIQFIEKTCPGATSRFTMNFLILYSFIPALVILGIVVFKIRDHLISR
chain 2: MAGKAAEERGLPKGATPQDTSGLQDRLFSSESDNSLYFTYSGQPNTLEVRDLNYQVDLASQVPWFEQLAQFKMPWTSPSCQNSCELGIQNLSFKVRSGQMLAIIGSSGCGRASLLDVITGRGHGGKIKSGQIWINGQPSSPQLVRKCVAHVRQHNQLLPNLTVRETLAFIAQMRLPRTFSQAQRDKRVEDVIAELRLRQCADTRVGNMYVRGLSGGERRRVSIGVQLLWNPGILILDEPTSGLDSFTAHNLVKTLSRLAKGNRLVLISLHQPRSDIFRLFDLVLLMTSGTPIYLGAAQHMVQYFTAIGYPCPRYSNPADFYVDLTSIDRRSREQELATREKAQSLAALFLEKVRDLDDFLWKAETKDLDEDTCVESSVTPLDTNCLPSPTKMPGAVQQFTTLIRRQISNDFRDLPTLLIHGAEACLMSMTIGFLYFGHGSIQLSFMDTAALLFMIGALIPFNVILDVISKCYSERAMLYYELEDGLYTTGPYFFAKILGELPEHCAYIIIYGMPTYWLANLRPGLQPFLLHFLLVWLVVFCCRIMALAAAALLPTFHMASFFSNALYNSFYLAGGFMINLSSLWTVPAWISKVSFLRWCFEGLMKIQFSRRTYKMPLGNLTIAVSGDKILSVMELDSYPLYAIYLIVIGLSGGFMVLYYVSLRFIKQKPSQDW
notes: as for B1
B3: ABCG5/G8 (Homo sapiens; Q9H221:R543S) (protein)
chain 1: MGDLSSLTPGGSMGLQVNRGSQSSLEGAPATAPEPHSLGILHASYSVSHRVRPWWDITSCRQQWTRQILKDVSLYVESGQIMCILGSSGSGKTTLLDAMSGRLGRAGTFLGEVYVNGRALRREQFQDCFSYVLQSDTLLSSLTVRETLHYTALLAIRRGNPGSFQKKVEAVMAELSLSHVADRLIGNYSLGGISTGERRRVSIAAQLLQDPKVMLFDEPTTGLDCMTANQIVVLLVELARRNRIVVLTIHQPRSELFQLFDKIAILSFGELIFCGTPAEMLDFFNDCGYPCPEHSNPFDFYMDLTSVDTQSKEREIETSKRVQMIESAYKKSAICHKTLKNIERMKHLKTLPMVPFKTKDSPGVFSKLGVLLRRVTRNLVRNKLAVITRLLQNLIMGLFLLFFVLRVRSNVLKGAIQDRVGLLYQFVGATPYTGMLNAVNLFPVLRAVSDQESQDGLYQKWQMMLAYALHVLPFSVVATMIFSSVCYWTLGLHPEVARFGYFSAALLAPHLIGEFLTLVLLGIVQNPNIVNSVVALLSIAGVLVGSGFLRNIQEMPIPFKIISYFTFQKYCSEILVVNEFYGLNFTCGSSNVSVTTNPMCAFTQGIQFIEKTCPGATSRFTMNFLILYSFIPALVILGIVVFKIRDHLISR
chain 2: MAGKAAEERGLPKGATPQDTSGLQDRLFSSESDNSLYFTYSGQPNTLEVRDLNYQVDLASQVPWFEQLAQFKMPWTSPSCQNSCELGIQNLSFKVRSGQMLAIIGSSGCGRASLLDVITGRGHGGKIKSGQIWINGQPSSPQLVRKCVAHVRQHNQLLPNLTVRETLAFIAQMRLPRTFSQAQRDKRVEDVIAELRLRQCADTRVGNMYVRGLSGGERRRVSIGVQLLWNPGILILDEPTSGLDSFTAHNLVKTLSRLAKGNRLVLISLHQPRSDIFRLFDLVLLMTSGTPIYLGAAQHMVQYFTAIGYPCPRYSNPADFYVDLTSIDRRSREQELATREKAQSLAALFLEKVRDLDDFLWKAETKDLDEDTCVESSVTPLDTNCLPSPTKMPGAVQQFTTLIRRQISNDFRDLPTLLIHGAEACLMSMTIGFLYFGHGSIQLSFMDTAALLFMIGALIPFNVILDVISKCYSERAMLYYELEDGLYTTGPYFFAKILGELPEHCAYIIIYGMPTYWLANLRPGLQPFLLHFLLVWLVVFCCSIMALAAAALLPTFHMASFFSNALYNSFYLAGGFMINLSSLWTVPAWISKVSFLRWCFEGLMKIQFSRRTYKMPLGNLTIAVSGDKILSVMELDSYPLYAIYLIVIGLSGGFMVLYYVSLRFIKQKPSQDW
notes: as for B1
B4: ABCG5/G8 (Homo sapiens; Q9H222:E146Q) (protein)
chain 1: MGDLSSLTPGGSMGLQVNRGSQSSLEGAPATAPEPHSLGILHASYSVSHRVRPWWDITSCRQQWTRQILKDVSLYVESGQIMCILGSSGSGKTTLLDAMSGRLGRAGTFLGEVYVNGRALRREQFQDCFSYVLQSDTLLSSLTVRQTLHYTALLAIRRGNPGSFQKKVEAVMAELSLSHVADRLIGNYSLGGISTGERRRVSIAAQLLQDPKVMLFDEPTTGLDCMTANQIVVLLVELARRNRIVVLTIHQPRSELFQLFDKIAILSFGELIFCGTPAEMLDFFNDCGYPCPEHSNPFDFYMDLTSVDTQSKEREIETSKRVQMIESAYKKSAICHKTLKNIERMKHLKTLPMVPFKTKDSPGVFSKLGVLLRRVTRNLVRNKLAVITRLLQNLIMGLFLLFFVLRVRSNVLKGAIQDRVGLLYQFVGATPYTGMLNAVNLFPVLRAVSDQESQDGLYQKWQMMLAYALHVLPFSVVATMIFSSVCYWTLGLHPEVARFGYFSAALLAPHLIGEFLTLVLLGIVQNPNIVNSVVALLSIAGVLVGSGFLRNIQEMPIPFKIISYFTFQKYCSEILVVNEFYGLNFTCGSSNVSVTTNPMCAFTQGIQFIEKTCPGATSRFTMNFLILYSFIPALVILGIVVFKIRDHLISR
chain 2: MAGKAAEERGLPKGATPQDTSGLQDRLFSSESDNSLYFTYSGQPNTLEVRDLNYQVDLASQVPWFEQLAQFKMPWTSPSCQNSCELGIQNLSFKVRSGQMLAIIGSSGCGRASLLDVITGRGHGGKIKSGQIWINGQPSSPQLVRKCVAHVRQHNQLLPNLTVRETLAFIAQMRLPRTFSQAQRDKRVEDVIAELRLRQCADTRVGNMYVRGLSGGERRRVSIGVQLLWNPGILILDEPTSGLDSFTAHNLVKTLSRLAKGNRLVLISLHQPRSDIFRLFDLVLLMTSGTPIYLGAAQHMVQYFTAIGYPCPRYSNPADFYVDLTSIDRRSREQELATREKAQSLAALFLEKVRDLDDFLWKAETKDLDEDTCVESSVTPLDTNCLPSPTKMPGAVQQFTTLIRRQISNDFRDLPTLLIHGAEACLMSMTIGFLYFGHGSIQLSFMDTAALLFMIGALIPFNVILDVISKCYSERAMLYYELEDGLYTTGPYFFAKILGELPEHCAYIIIYGMPTYWLANLRPGLQPFLLHFLLVWLVVFCCRIMALAAAALLPTFHMASFFSNALYNSFYLAGGFMINLSSLWTVPAWISKVSFLRWCFEGLMKIQFSRRTYKMPLGNLTIAVSGDKILSVMELDSYPLYAIYLIVIGLSGGFMVLYYVSLRFIKQKPSQDW
notes: as for B1

Substrate in the data set: Nc1ncnc2c1ncn2[C@@H]1O[C@H](COP(=O)(O)OP(=O)(O)OP(=O)(O)O)[C@@H](O)[C@H]1O
Kind of data set: colorimetric bismuth citrate phosphate-release ATPase assay. The conditions noted are these: E. coli polar lipids, 1.5% sodium cholate, 4.1 mM CHS, Mg2+, 0.1% DDM, pH 7.5, 37 °C. The data set is classed as biochemical, Homo sapiens. An excerpt:
colorimetric bismuth citrate phosphate-release ATPase assay on ABCG5/G8
Take B1: the Km (commonly the concentration of substrate that gives half-maximal velocity) was found to be 600 ± 70 µM; the Vmax (in general, the top rate of the reaction or transport when substrate is in excess) was found to be 0.677 µmol/min/mg; the catalytic constant (kcat) (commonly the maximal rate divided by the concentration of active sites) worked out at 1.69 ± 0.06 s⁻¹; the kcat/Km (usually the turnover number divided by the Michaelis constant) came out at 2800 M⁻¹ s⁻¹.
The matching figures for B2: 580 ± 80 µM, 0.101 µmol/min/mg, 0.25 ± 0.01 s⁻¹ and 430 M⁻¹ s⁻¹.
The corresponding values for B3 are 420 ± 40 µM, 0.151 µmol/min/mg, 0.38 ± 0.01 s⁻¹ and 900 M⁻¹ s⁻¹.
The corresponding values for B4 are 510 ± 50 µM, 0.167 µmol/min/mg, 0.41 s⁻¹ and 820 M⁻¹ s⁻¹.
